The test addresses T1, Colicin E9 OBS1 peptide 2-18 (Escherichia coli, UniProt P09883).
T1 chain: SGGDGRGHNTGAHSTSG
Kind of test: ITC.

B1: OmpF (protein)
chain: AEIYNKDGNKVDLYGKAVGLHYFSKGNGENSYGGNGDMTYARLGFKGETQINSDLTGYGQWEYNFQGNNSEGADAQTGNKTRLAFAGLKYADVGSFDYGRNYGVVYDALGYTDMLPEFGGDTAYSDDFFVGRVGGVATYRNSNFFGLVDGLNFAVQYLGKNERDTARRSNGDGVGGSISYEYEGFGIVGAYGAADRTNLQEAQPLGNGKKAEQWATGLKYDANNIYLAANYGETRNATPITNKFTNTSGFANKTQDVLLVAQYQFDFGLRPSIAYTKSKAKDVEGIGDVDLVNYFEVGATYYFNKNMSTYVDYIINQIDSDNKLGVGSDDTVAVGIVYQF
Molecule B1 gave a Kd of approximately 1000 nM.

Values taken from PMC3856478 (2013).
